Data set [1] deals with T1, rEaIRP (iron regulatory protein) (Eisenia andrei, UniProt I1VH49 1-890).
T1 sequence: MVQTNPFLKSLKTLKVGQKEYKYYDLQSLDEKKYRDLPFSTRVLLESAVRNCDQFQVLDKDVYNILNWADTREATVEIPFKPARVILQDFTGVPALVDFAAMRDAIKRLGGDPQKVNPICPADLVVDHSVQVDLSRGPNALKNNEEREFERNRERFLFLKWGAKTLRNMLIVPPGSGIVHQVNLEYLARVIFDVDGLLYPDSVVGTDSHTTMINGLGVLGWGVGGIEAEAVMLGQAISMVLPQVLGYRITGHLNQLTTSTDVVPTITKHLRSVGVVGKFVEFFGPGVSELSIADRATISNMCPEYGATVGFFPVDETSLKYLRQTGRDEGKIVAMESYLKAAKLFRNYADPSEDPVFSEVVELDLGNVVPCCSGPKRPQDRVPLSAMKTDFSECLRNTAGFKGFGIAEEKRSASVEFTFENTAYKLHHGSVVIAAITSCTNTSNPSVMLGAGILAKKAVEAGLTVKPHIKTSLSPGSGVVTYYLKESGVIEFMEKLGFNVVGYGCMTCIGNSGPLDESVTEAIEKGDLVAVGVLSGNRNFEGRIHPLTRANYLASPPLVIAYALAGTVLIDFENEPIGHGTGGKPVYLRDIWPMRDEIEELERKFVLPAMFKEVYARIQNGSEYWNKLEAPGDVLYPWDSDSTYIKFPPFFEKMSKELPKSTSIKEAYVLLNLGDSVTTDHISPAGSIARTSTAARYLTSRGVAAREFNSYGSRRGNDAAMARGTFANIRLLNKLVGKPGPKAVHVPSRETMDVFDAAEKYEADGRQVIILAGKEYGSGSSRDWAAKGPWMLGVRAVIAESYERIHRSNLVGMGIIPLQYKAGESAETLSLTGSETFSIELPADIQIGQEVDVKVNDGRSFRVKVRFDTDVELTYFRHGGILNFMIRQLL
Kind of data set: EMSA; 6 nM RNA, 5-150 nM protein, tRNA; complex visible at 20 nM, distinct at 50 nM; low affinity; competed by unlabeled EAconsIRE; LightShift RNA EMSA kit binding buffer (composition not given), 5% glycerol, 2 ug tRNA, 20 ul, 30 min room temperature; rEaIRP reduced with 1 mM 2-mercaptoethanol; 6% native PAGE in 0.5X TBE; pH and salt not given; liver extract lanes left out (protein not identified). Conditions: protein: recombinant; tags: N-terminal 6xHis (pRSET B); label: biotin; hairpin; optimal fold has unpaired U one nt closer to the loop instead of bulged C. On the technique in general: Mobility shift assays separate free from complexed probe on a gel.

For data set [2], the target named is T1, rEaIRP (iron regulatory protein). Put plainly: EMSA; 6 nM RNA, 50 nM protein, tRNA; reduced by 200-fold unlabeled MAMconsIRE; LightShift RNA EMSA kit binding buffer (composition not given), 5% glycerol, 2 ug tRNA, 20 ul, 30 min room temperature; rEaIRP reduced with 1 mM 2-mercaptoethanol; 6% native PAGE in 0.5X TBE; pH and salt not given; liver extract lanes left out (protein not identified). Conditions: protein: recombinant; tags: N-terminal 6xHis (pRSET B); label: biotin; hairpin with bulged C.

In the case of GGGUGCUUUGCUGCGUCAGUGUGCGUGCGAGCUAA (structured_RNA, Bio-11-UTP incorporated in transcription (probe)) [EAconsIRE], the binding result in data set [1] is listed as “binds”.

On to GGGUUUCCUGCUUCAACAGUGCUUGGACGGAACCC (structured_RNA, Bio-11-UTP incorporated in transcription (probe)) [MAMconsIRE], for which the binding result in data set [2] is “binds”.
